This passage reports Kd, binding result and IC50 results from patent publication US6207816, “High affinity oligonucleotide ligands to growth factors” (NeXstar Pharmaceuticals, Inc.).

Data set [1] deals with T1, KGF (hKGF) (Homo sapiens, UniProt P21781 P21781:32-194).
T1 sequence: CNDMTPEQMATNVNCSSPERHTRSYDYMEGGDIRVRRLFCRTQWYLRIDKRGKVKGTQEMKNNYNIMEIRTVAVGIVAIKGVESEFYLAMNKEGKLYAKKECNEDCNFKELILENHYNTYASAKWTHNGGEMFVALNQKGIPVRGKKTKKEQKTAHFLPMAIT
The data set can be described thus: filter; DPBS 37 C. The note with it: tags: Upstate Biotechnology.

Data set [2] addresses T2, TGF-beta1 (Homo sapiens, UniProt P01137 P01137:279-390). The data set is described as follows: filter; boundary experiment. The note with it: tags: Genentech; chain copies: 2.
Data set [3] deals with T2, TGF-beta1. The data set can be described thus: filter; n=3; KRH buffer 37 C; IC50 25 ± 14 nM in PAI-luciferase assay. The note with it: tags: Genentech or R&D Systems; chain copies: 2.
Data set [4] addresses T1, KGF (hKGF). The data set can be described thus: competition; PC-3 assay. The following applies: tags: Upstate Biotechnology. As for the experimental part: PC-3 cells were plated in 24-well plates at about 10^5 cells per well. Following growth for […], the cells were serum starved for 24 hours, washed two times with 500 µl of cold DPBS, and then incubated with 500 µl binding buffer (BB1; DPBS, 0.5 mM MgCl_2, 0.2% BSA. 0.02% sodium azide) containing various concentrations of ^125I-labeled KGF ranging from 0 to 0.8 nM. Following 3–3.5 hour incubation at 4° C., the binding mixes were aspirated and the well-adhered cells were washed two times with 1 ml BB1 and once with 1 ml BB1 supplemented with 0.5M NaCl. The remaining bound labeled hKGF was solubilized in 600 µl 0.5% SDS/0.1M NaOH and counted in a gamma counter (Beckmann). Nonspecific binding was determined in the presence of 100 fold molar excess of unlabeled hKGF. For competition assays, the labeled hKGF was kept constant at 0.3 nM, and varying concentrations of competitor molecules were included in the binding reactions ranging from 0–1,000 nM. Binding curves were fitted to the equation: […]
A subset of these ligands was tested on the NIH3T3/FGFR-2. In determining the Ki values, it was assumed that 3T3 cells have 500,000 binding sites per cell and PC-3 cells have 5,000 binding sites per cell.

The target of data set [5] is T3, PDGF-AB (Homo sapiens, UniProt P04085;P01127 P04085:87-211,P01127:82-190). The data set is described as follows: filter; 41t binds within factor 2 of full length. The following applies: tags: R&D Systems. How it is done: (§1) D. Determination of the Apparent Equilibrium Dissociation Constants and the Dissociation Rate Constants The binding of ssDNA ligands at low concentrations to varying concentrations of PDGF was determined by the nitrocellulose filter binding method as described (Green et al., (1995) *Chemistry and Biology* 2: 683–695). The concentrations of PDGF stock solutions (in PBS) were determined from the absorbance readings at […] using the following $e280$ values calculated from the amino acid sequences (Gill, S. C., and von Hippel, P. H. (1989) *Anal. Biochem.* 182: 319–326): 19,500 M^-1cm^-1 for PDGF-AA, 15,700 M^-1cm^-1 for PDGF-AB and 11,800 M^-1cm^-1 for PDGF-BB. ssDNA for all binding experiments were purified by electrophoresis on 8% (>80 nucleotides) or 12% (<40 nucleotides) polyacrylamide/7 M urea gels. All ssDNA ligands were heated at 90° C. in binding buffer at high dilution ($\approx$1 nM) for 2 min and cooled on ice prior to frier dilution into the protein solution. The binding mixtures were typically incubated for 15 min at 37° C. before partitioning on nitrocellulose filters.

The target in data set [6] is T3, PDGF-AB. The data set is described as follows: filter; 37 C, PBSM + 0.01% HSA; high affinity component. The note with it: tags: R&D Systems, E. coli; label: 5'-32P; three-way helix junction. How it is done:
as §1
(§2) The fraction of ^32P 5' end-labeled DNA ligands bound to varying concentrations of PDGF was determined by the nitrocellulose filter binding method. Minimal ligands tested were 20t (○), 36t (Δ), and 41t (□). […]

Data set [7] concerns the target T4, PDGF-BB (Homo sapiens, UniProt P01127 P01127:82-190). The data set is described as above. The following applies: tags: R&D Systems, E. coli; chain copies: 2; label: 5'-32P; three-way helix junction. As for the experimental part: as §1, §2
Data set [8] addresses T4, PDGF-BB. The data set can be described thus: competition; 125I-PDGF-BB binding to PDGF alpha-receptor on PAE cells. The note with it: tags: R&D Systems; chain copies: 2; three-way junction.
The next data set deals with PDGF-AA (Homo sapiens, UniProt P04085 P04085:87-211). The data set is described as follows: filter; 37 C; comparable to random DNA. The following applies: tags: R&D Systems, E. coli, long form A-chain; chain copies: 2; label: 5'-32P; three-way helix junction. How it is done: as §1, §2
Data set [9] addresses T2, TGF-beta1. The data set can be described thus: cell_activity; second value 298 nM. The following applies: tags: Genentech; chain copies: 2. As for the experimental part: (§3) Mink lung epithelial cells (MLEC) carrying the Pai1/luc construct were maintained in DME containing 10% fetal bovine serum and 400 μg/ml G418. MLEC-Pai1/luc cells were plated at 3.2×10^4 cells per well in a 96 well Falcon plate, in 100 μl of DME+10% fetal bovine serum overnight. Media was made from autoclaved water. The cells were washed three times (100 μl) in serum free DME plus Solution A (1:1). Solution A is 30 mM Hepes pH 7.6, 10 mM glucose, 3.0 mM KCl, 131 mM NaCl, 1.0 mM disodium phosphate. Samples (100 μl) were added in DME containing 20 mM Hepes pH 7.5, and 0.1% BSA (Fluka, radioimmunoassay grade). All samples were in triplicate. After six hours at 37° C. in a 5% CO_2 incubator the media was removed and cells were washed three times (100 μl each) in cold PBS. Lysis buffer (75 μl) (Analytical Luminescence Laboratory) was added and the plates incubated on ice for 20 min. The plates were sealed and frozen at −80° C. until assayed. Samples (25 μl) were assayed for luciferase activity with the Enhanced Luciferase Assay Kit from Analytical Luminescence Laboratory (San Diego, Calif., USA) according to the manufacturers instructions using the Berthold Microlumat LB96P luminometer.
(§4) Ligands tested for inhibition of TGFβ1 activity were tested at a minimum of five concentrations. […]

For data set [10], the target named is T3, PDGF-AB. The data set is described as follows: filter; 20t binds within factor 2 of full length. The note with it: tags: R&D Systems. How it is done: as §1
The target in data set [11] is T2, TGF-beta1. The data set is described as follows: cell_activity; second value 103 nM. The note with it: tags: Genentech; chain copies: 2. As for the experimental part: as §3, §4
Data set [12] has as its target T3, PDGF-AB. The data set can be described thus: filter; thrombin aptamer control. The note with it: tags: R&D Systems, E. coli; predicted stem-loop.
In data set [13] the target is T4, PDGF-BB. The data set can be described thus: competition; no effect on receptor binding or mitogenesis. The note with it: tags: R&D Systems; chain copies: 2; stem-loop.
Experimental: After incubation for 24 h at 37° C., ^3H-radioactivity incorporated into DNA was determined using a β-counter.

T2 sequence (P01137 279-390, one chain of several): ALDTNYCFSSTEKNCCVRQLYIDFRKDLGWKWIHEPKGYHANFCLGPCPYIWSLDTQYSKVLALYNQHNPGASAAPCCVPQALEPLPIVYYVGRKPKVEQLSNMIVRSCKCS
T3 sequence (P01127 82-190, chain 2 of 2, other chains not shown): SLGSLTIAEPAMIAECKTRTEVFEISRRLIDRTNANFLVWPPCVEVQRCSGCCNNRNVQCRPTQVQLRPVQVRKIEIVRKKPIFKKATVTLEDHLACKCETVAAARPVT
T4 sequence (P01127 82-190, one chain of several): as the sequence (P01127 82-190, chain 2 of 2, other chains not shown) above

B1: 47N (ssRNA)
RNA: GGGAGGACGAUGCGGGAAGGGUAGGAAGGUCAAGAGGAAACAGCGCUUCGGGGGUGCAGACGACUCGCCCGA
modifications: 2'-NH2 pyrimidines
As to B1, the Kd with KGF (hKGF) [1] was 1.76 nM.

B2: lib3-13-79 (ssRNA)
RNA: GGGGGAGAACGCGGAUCCGAGCAAUCCCAGGCGCAUAGCUUCCGAGUAGACAGGAGGGAGGGGUGGAUGUGGCGUCUAC
B2: the binding result with TGF-beta1 [2] is given as “binds”.

B3: lib3-13 (ssRNA)
RNA: GGGGGAGAACGCGGAUCCGAGCAAUCCCAGGCGCAUAGCUUCCGAGUAGACAGGAGGGAGGGGUGGAUGUGGCGUCUACUCGGUGUCGUGAAGCUUCGCUCUAGAUCUCCCUUUAGUGAGGGUUA
modifications: 2'-NH2 pyrimidines
B3 showed a Kd with TGF-beta1 [3] of 0.83 nM.

B4: 4N (ssRNA)
RNA: GGGAGGACGAUGCGGGUGGUGAAGAGGUACCGGAAUUGCUAAAGAUACCACGGCCCAGACGACUCGCCCGA
modifications: 2'-NH2 pyrimidines
As to B4, in the data set with KGF (hKGF) [1], binding was put at a Kd of 0.75 nM.

B5: 4N (K4N) (ssRNA)
RNA: GGGAGGACGAUGCGGGUGGUGAAGAGGUACCGGAAUUGCUAAAGAUACCACGGCCCAGACGACUCGCCCGA
modifications: 2'-NH2 pyrimidines
In the data set with KGF (hKGF) [4], B5 came in with an IC50 of 70 nM.

B6: lib3-13-(38-123) (ssRNA)
RNA: GCUUCCGAGUAGACAGGAGGGAGGGGUGGAUGUGGCGUCUACUCGGUGUCGUGAAGCUUCGCUCUAGAUCUCCCUUUAGUGAGGGU
With B6, the binding result with TGF-beta1 [2] is on record as “binds”.

B7: ligand 41 full length (ssDNA)
DNA: ATCCGCCTGATTAGCGATACTCAGGGCACTGCAAGCAATTGTGGTCCCAATGGGCTGAGTACTTGAGCAAAATCACCTGCAGGGG
B7: the binding result in the data set with PDGF-AB [5] is recorded as “binds”.

B8: 20t (ssDNA)
DNA: TGGGAGGGCGCGTTCTTCGTGGTTACTTTTAGTCCCG
modifications: 3'-3' inverted T
Take B8: the Kd in the data set with PDGF-AB [6] is 0.147 nM; in the data set with PDGF-BB [7] it was 0.127 nM; with PDGF-AA it was 47 nM. The molecule further displayed an IC50 with PDGF-BB [8] of approximately 1 nM.

B9: lib2-6-1-81 (ssRNA)
RNA: GGGGGAGAACGCGGAUCCUGUCUCCACCGCCGAUACUGGGGUUCCUGGGGCCCCUCCAUGCAGGAGGGGGGUGGUUCGGAG
modifications: 2'-NH2 U, 2'-F C
Turning to B9, 201 nM corresponded to half-maximal inhibition with TGF-beta1 [9] (IC50). That is a sub-micromolar value.

B10: ligand 20 full length (ssDNA)
DNA: ATCCGCCTGATTAGCGATACTATGGGAGGGCGCGTTCTTCGTGGTTACTTTTAGTCCCGACTTGAGCAAAATCACCTGCAGGGG
Regarding B10, the binding result with PDGF-AB [10] was “binds”.

B11: 10F (ssRNA)
RNA: GGGAGGACGAUGCGGGACCAGAUGGCGGAUUUUUCAGCAAUCCUCCCCCCGCUGCCCAGACGACUCGCCCGA
modifications: 2'-F pyrimidines
For the molecule B11, in the data set with KGF (hKGF) [1], the Kd came out at 0.47 nM.

B12: 10F (K10F) (ssRNA)
RNA: GGGAGGACGAUGCGGGACCAGAUGGCGGAUUUUUCAGCAAUCCUCCCCCCGCUGCCCAGACGACUCGCCCGA
modifications: 2'-F pyrimidines
The molecule B12 showed an IC50 in the data set with KGF (hKGF) [4] of 30 nM. This counts as double-digit nanomolar.

B13: lib2-6-1 (ssRNA)
RNA: GGGGGAGAACGCGGAUCCUGUCUCCACCGCCGAUACUGGGGUUCCUGGGGCCCCUCCAUGCAGGAGGGGGGUGGUUCGGAGAAAGCUUCGCUCUAGAUCUCCCUUUAGUGAGGGUUA
modifications: 2'-NH2 U, 2'-F C
Turning to B13, in the data set with TGF-beta1 [11], it took 112 nM to reach half-maximal inhibition (IC50).

B14: T39 (ssDNA)
DNA: CAGTCCGTGGTAGGGCAGGTTGGGGTGACTTCGTGGAA
modifications: 3'-3' inverted T
As to B14, the Kd with PDGF-AB [12] was 230 nM. For the same molecule, the binding result with PDGF-BB [13] was “no binding”.

Broadly, the Kd is the concentration at which binding is half-saturated. The IC50 is the concentration at which inhibition is half-maximal. A higher IC50 goes with weaker potency.
